{"source": "patent US20150030597A1", "about": "(US Dept. of Health and Human Services, published 2015)", "key": {"[1]": {"target": "T1, soluble mouse VEGFR2-hIgG.FC fusion protein (mouse; human, UniProt P35918 20-762)", "T1 construct": "Bought from R&D Systems; also called soluble mouse VEGFR-2-human IgG-FC fusion protein; mVEGFR2-hIgG.FC; not shown: human IgG Fc", "T1 sequence (P35918 20-762 limits assumed)": "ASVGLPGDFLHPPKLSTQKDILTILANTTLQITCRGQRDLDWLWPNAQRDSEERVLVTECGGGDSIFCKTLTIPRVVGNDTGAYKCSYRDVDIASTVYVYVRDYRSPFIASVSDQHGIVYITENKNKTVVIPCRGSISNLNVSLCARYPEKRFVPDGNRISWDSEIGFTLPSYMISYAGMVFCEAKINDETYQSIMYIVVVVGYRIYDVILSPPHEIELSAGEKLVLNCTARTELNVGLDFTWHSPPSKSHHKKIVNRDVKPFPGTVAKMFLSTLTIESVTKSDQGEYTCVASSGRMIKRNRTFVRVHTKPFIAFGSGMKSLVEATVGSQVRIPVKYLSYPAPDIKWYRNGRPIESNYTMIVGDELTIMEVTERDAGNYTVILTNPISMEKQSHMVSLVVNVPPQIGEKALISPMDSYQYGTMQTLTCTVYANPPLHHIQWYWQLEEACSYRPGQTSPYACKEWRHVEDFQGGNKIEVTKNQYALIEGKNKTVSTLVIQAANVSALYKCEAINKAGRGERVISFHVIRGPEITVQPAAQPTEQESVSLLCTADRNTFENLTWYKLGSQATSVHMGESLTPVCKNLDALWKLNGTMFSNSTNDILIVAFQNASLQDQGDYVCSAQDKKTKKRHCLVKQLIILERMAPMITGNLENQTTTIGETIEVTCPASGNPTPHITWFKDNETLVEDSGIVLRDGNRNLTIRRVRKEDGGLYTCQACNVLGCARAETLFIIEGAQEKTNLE", "experiment": "flow cytometry, transduced mouse CD3+CD4+ T cells stained with soluble mVEGFR2-hIgG.FC and PE anti-human IgG-FC; mean ± SEM of 5 experiments", "procedure": "(§1) Mouse T cells were retrovirally transduced with retroviral vectors DC101-CD828Z or DC101-CD828BBZ CAR as described in Example 5 or were transduced with the DC101-CD8 or SP6-CD828BBZ vectors described in Comparative Example 1, or with an empty MSGV vector (lacking any of the CAR sequences). Surface expression of the retrovirally encoded transgene products in transduced CD3⁺ primary mouse T cells was determined by flow cytometry using the soluble mouse VEGFR-2-human IgG-FC fusion protein and PE-conjugated anti-human IgG-FC.\n(§2) On day 4 post-transduction, cells were costained with anti-mouse CD8 antibody and CAR-specific reagents and were FACS analysed to determine the expression of transgene products in CD8⁺and CD8″ T cell subsets. Detection of DC101 CAR on retrovirally transduced mouse T cells on day 4 after transduction was achieved by indirect immunofluorescence with soluble mouse (m) VEGFR2-hIgG.FC fusion protein (R&D Systems®, Minneapolis, […].), followed by staining with a phycoerythrin (PE)-labeled goat anti-human IgG-FC antibody (eBioscience™, San Diego, Calif.). Briefly, 5×10⁵ cells were incubated with 2 μg of bovine serum albumin (BSA; Sigma-Aldrich®) or species-specific soluble mVEGFR2-hIgG.FC protein at 4° C. for 45 min. Cells were then washed in FACS buffer (phosphate buffered saline containing 1% FBS) and stained with PE-conjugated anti human IgG-FC (αchIgG.FC). At this step, mouse T cells were co-stained with peridinin chlorophyll (PerCP)-labeled anti-mouse CD8 (BD Pharmingen, San Diego, Calif.) at appropriate concentrations recommended by the manufacturer at 4° C. for 20-30 min, then washed and resuspended in FACS buffer. Cells incubated with 2 μg bovine serum albumin (BSA) and subsequently stained with PE-conjugated anti human IgG-FC (αhIgG-FC) and PerCP labeled anti-mouse CD8 served as a control."}, "[2]": {"target": "T1, soluble mouse VEGFR2-hIgG.FC fusion …", "experiment": "flow cytometry, transduced mouse CD3+CD8+ T cells stained with soluble mVEGFR2-hIgG.FC and PE anti-human IgG-FC; mean ± SEM of 5 experiments", "procedure": "as §1, §2"}}}
{"binder": "DC101-CD8 (other, also called MSGV-DC101-CD8) EVQLVETGGGLVQPGNSLKLSCATSGFIFSTTWMNWIRQTPGKRLEWLAQIEDKSNNYFISYSESVKGRFTISRDDSKSSVYLQMNNLKEEDTAIYYCSWKYRSNYYFDYWGQGVMVTVSSGSTSGSGKPGSGEGSDIVLTQSPALAVSLEQRATISCKTSQNVDYYGISYLHWYQQKPGQQPKLLIYEGSNLASGIPARFSGSGSGTDFTLTIDPVEADDIVTYYCQQSKDYPYTFGAGTKLELKTTTKPVLRTPSPVHPTGTSQPQRPEDCRPRGSVKGTGLDFACDIYIWAPLAGICVALLLSLIITLICYHRSR", "values": [{"measurement": "% Transduction (percent transgene positive cells)", "setting": "[1]", "result": 83.2, "unit": "%"}, {"measurement": "Mean Fluorescence Intensity (MFI)", "setting": "[1]", "result": 114}, {"measurement": "% Transduction (percent transgene positive cells)", "setting": "[2]", "result": 80.8, "unit": "%"}, {"measurement": "Mean Fluorescence Intensity (MFI)", "setting": "[2]", "result": 108}]}
{"binder": "DC101-CD828Z CAR (other, Chimeric antigen receptor on transduced primary mouse T cells: same as DC101-CD828BBZ but without the 4-1BB signalling domain; also called DC101-mCD828Z; MSGV-DC101-CD828Z) EVQLVETGGGLVQPGNSLKLSCATSGFIFSTTWMNWIRQTPGKRLEWLAQIEDKSNNYFISYSESVKGRFTISRDDSKSSVYLQMNNLKEEDTAIYYCSWKYRSNYYFDYWGQGVMVTVSSGSTSGSGKPGSGEGSDIVLTQSPALAVSLEQRATISCKTSQNVDYYGISYLHWYQQKPGQQPKLLIYEGSNLASGIPARFSGSGSGTDFTLTIDPVEADDIVTYYCQQSKDYPYTFGAGTKLELKAAATTTKPVLRTPSPVHPTGTSQPQRPEDCRPRGSVKGTGLDFACDIYIWAPLAGICVALLLSLIITLICYHRSRNSRRNRLLQVTTMNMTPRRPGLTRKPYQPYAPARDFAAYRPRAKFSRSAETAANLQDPNQLYNELNLGRREEYDVLEKKRARDPEMGGKQQRRRNPQEGVYNALQKDKMAEAYSEIGTKGERRRGKGHDGLYQGLSTATKDTYDALHMQTLAPR", "values": [{"measurement": "% Transduction (percent transgene positive cells)", "setting": "[1]", "result": 84, "unit": "%"}, {"measurement": "Mean Fluorescence Intensity (MFI)", "setting": "[1]", "result": 95}, {"measurement": "% Transduction (percent transgene positive cells)", "setting": "[2]", "result": 86, "unit": "%"}, {"measurement": "Mean Fluorescence Intensity (MFI)", "setting": "[2]", "result": 92}]}
{"binder": "DC101-CD828BBZ CAR (other, also called DC101-mCD828BBZ; MSGV-DC101-CD828BBZ) EVQLVETGGGLVQPGNSLKLSCATSGFIFSTTWMNWIRQTPGKRLEWLAQIEDKSNNYFISYSESVKGRFTISRDDSKSSVYLQMNNLKEEDTAIYYCSWKYRSNYYFDYWGQGVMVTVSSGSTSGSGKPGSGEGSDIVLTQSPALAVSLEQRATISCKTSQNVDYYGISYLHWYQQKPGQQPKLLIYEGSNLASGIPARFSGSGSGTDFTLTIDPVEADDIVTYYCQQSKDYPYTFGAGTKLELKAAATTTKPVLRTPSPVHPTGTSQPQRPEDCRPRGSVKGTGLDFACDIYIWAPLAGICVALLLSLIITLICYHRSRNSRRNRLLQVTTMNMTPRRPGLTRKPYQPYAPARDFAAYRPKWIRKKFPHIFKQPFKKTTGAAQEEDACSCRCPQEEEGGGGGYELRAKFSRSAETAANLQDPNQLYNELNLGRREEYDVLEKKRARDPEMGGKQQRRRNPQEGVYNALQKDKMAEAYSEIGTKGERRRGKGHDGLYQGLSTATKDTYDALHMQTLAPR", "values": [{"measurement": "% Transduction (percent transgene positive cells)", "setting": "[1]", "result": 79, "unit": "%"}, {"measurement": "Mean Fluorescence Intensity (MFI)", "setting": "[1]", "result": 76.5}, {"measurement": "% Transduction (percent transgene positive cells)", "setting": "[2]", "result": 78.2, "unit": "%"}, {"measurement": "Mean Fluorescence Intensity (MFI)", "setting": "[2]", "result": 75.8}]}
